Columns and labels:
[1] = biological target: T1, human IL-1β (human, UniProt P01584 117-269); experiment: cell-based or functional assay
[2] = biological target: T2, pig IL-1β (pig, UniProt P26889 115-267); experiment: SPR, Biacore 8K, mAb captured on anti-human Fc chip, soluble IL-1β as analyte
T2 construct: also called pig IL-β
T2 sequence (looked up): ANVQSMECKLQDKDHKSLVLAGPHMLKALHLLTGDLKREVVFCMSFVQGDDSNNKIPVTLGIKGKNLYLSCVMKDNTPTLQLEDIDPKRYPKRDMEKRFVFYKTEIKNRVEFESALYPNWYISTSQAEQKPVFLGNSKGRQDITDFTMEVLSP
Procedure: (§1) Affinity assessment of 05H21A, 15N14A, and 08F17A against human IL-1β was performed by Surface Plasmon Resonance (SPR) using a Biacore 8k. Cross-reactivity of the same antibody panel was also assessed against cyno, mouse, rat and pig IL-1β.
(§2) SPR is a label-free technique to study the strength of an interaction between two binding partners by measuring the change in mass upon complex formation and dissociation. Briefly, antibodies were immobilized on a sensor chip which was coupled with goat anti-human Fc (GAH-Fc C1 sensor chip). Soluble IL-1β was flowed over the immobilized antibody and association/dissociation responses were monitored. Kinetic information (on-rate and off-rate constants) were extracted by fitting sensorgrams to the 1:1 Langmuir model. Binding affinity (KD) were reported as the ratio of rate constants (koff/kₒₙ).

[3] = biological target: T3, mouse IL-1β (mouse, UniProt P10749 118-269); experiment: as above
T3 construct: also called mouse IL-β
T3 sequence (looked up): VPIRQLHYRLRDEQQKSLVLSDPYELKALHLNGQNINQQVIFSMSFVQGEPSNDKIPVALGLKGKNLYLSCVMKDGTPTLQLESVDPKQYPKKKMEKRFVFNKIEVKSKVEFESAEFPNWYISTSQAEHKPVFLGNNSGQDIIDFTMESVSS
Procedure: as §1, §2

[4] = biological target: T4, rat IL-1β (rat, UniProt Q63264 117-268); experiment: as above
T4 construct: also called rat IL-β
T4 sequence (looked up): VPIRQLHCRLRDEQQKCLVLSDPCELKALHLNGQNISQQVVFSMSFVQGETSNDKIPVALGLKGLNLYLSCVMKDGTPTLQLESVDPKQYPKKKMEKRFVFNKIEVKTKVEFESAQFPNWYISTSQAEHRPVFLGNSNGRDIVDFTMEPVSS
Procedure: as §1, §2

[5] = biological target: T1, human IL-1β; experiment: cell-based or functional assay; remark: listed apart in the source
[6] = biological target: T5, cynomolgus IL-1β (cynomolgus macaque, UniProt P79182 117-268); experiment: cell-based or functional assay
T5 sequence (looked up): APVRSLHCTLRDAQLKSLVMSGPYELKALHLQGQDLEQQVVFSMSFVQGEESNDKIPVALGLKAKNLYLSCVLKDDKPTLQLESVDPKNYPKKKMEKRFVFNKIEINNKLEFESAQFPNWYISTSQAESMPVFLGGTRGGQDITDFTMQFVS

[7] = biological target: T1, human IL-1β; experiment: SPR, Biacore 8K, mAb captured on goat anti-human Fc C1 chip, soluble IL-1β as analyte, 1:1 Langmuir fit
Procedure: as §1, §2

[8] = biological target: T5, cynomolgus IL-1β; experiment: as above
Procedure: as §1, §2

[9] = biological target: T1, human IL-1β; experiment: cell-based or functional assay; remark: listed apart in the source

B1: 08F17A (antibody, human IgG1, kappa, V domains shown)
VH: EVQLVESGGGLVTPGGSLRLSCAASGFTFSGYSMNWVRQAPGKGLEWVSSISSSSGYIYYADSVKGRFTISRDNAKNSLYLQMNSLRAEDTAVYYCAREYWGSGFDYWGQGTLVTVSS
VL: DIQMTQSPSSLSASVGDRVTITCRASQGISYYLAWYQQKPGKVPKLLISAEFTLQSGVPSRFSGSGSGTDFTLTISSLQPEDVATYYCQKYNTAPRTFGQGTKVEIKR
notes: Kappa light chain; also called 08F17A (anti-IL-1β) mAb [IgG1: YTE]
Question: Which results are given for B1?
Answer: IC30, inhibition of IL-6 release, human PBMCs (n=5 donors), 10 pM rhIL-1β [1]: 52 pM; IC30, inhibition of IL-6 release, human PBMCs (n=5 donors), 30 pM rhIL-1β [1]: 0.156 nM; IC50, inhibition of IL-6 release, human PBMCs (n=5 donors), 10 pM rhIL-1β [1]: 92 pM; IC50, inhibition of IL-6 release, human PBMCs (n=5 donors), 30 pM rhIL-1β [1]: 0.241 nM; IC90, inhibition of IL-6 release, human PBMCs (n=5 donors), 10 pM rhIL-1β [1]: 0.402 nM; IC90, inhibition of IL-6 release, human PBMCs (n=5 donors), 30 pM rhIL-1β [1]: 0.744 nM; binding result [2]: no binding; binding result [3]: no binding; binding result [4]: no binding; IC30, inhibition of rhIL-1β-induced CXCL5 release, human whole blood (5 donors) [5]: 1.33 nM; IC30, inhibition of rhIL-1β-induced G-CSF release, human whole blood (5 donors) [5]: 0.704 nM; IC30, inhibition of rhIL-1β-induced IL-6 release, human whole blood (5 donors) [5]: 0.872 nM; IC50, inhibition of rhIL-1β-induced CXCL5 release, human whole blood (5 donors) [5]: 2.86 nM; IC50, inhibition of rhIL-1β-induced G-CSF release, human whole blood (5 donors) [5]: 1.31 nM; IC50, inhibition of rhIL-1β-induced IL-6 release, human whole blood (5 donors) [5]: 1.53 nM; IC90, inhibition of rhIL-1β-induced CXCL5 release, human whole blood (5 donors) [5]: 20.8 nM; IC90, inhibition of rhIL-1β-induced G-CSF release, human whole blood (5 donors) [5]: 6.58 nM; IC90, inhibition of rhIL-1β-induced IL-6 release, human whole blood (5 donors) [5]: 6.56 nM; IC30, inhibition of G-CSF release, cynomolgus lung fibroblasts (CLF), 15 pM rcynoIL-1β [6]: 3.58 nM; IC30, inhibition of IL-6 release, cynomolgus dermal fibroblasts (CDF), 5 pM rcynoIL-1β [6]: 2.72 nM; IC30, inhibition of IL-6 release, cynomolgus lung fibroblasts (CLF), 15 pM rcynoIL-1β [6]: 3.44 nM; IC50, inhibition of G-CSF release, cynomolgus dermal fibroblasts (CDF), 5 pM rcynoIL-1β [6]: 3.24 nM; IC50, inhibition of G-CSF release, cynomolgus lung fibroblasts (CLF), 15 pM rcynoIL-1β [6]: 6.11 nM; IC50, inhibition of IL-6 release, cynomolgus dermal fibroblasts (CDF), 5 pM rcynoIL-1β [6]: 5.1 nM; IC50, inhibition of IL-6 release, cynomolgus lung fibroblasts (CLF), 15 pM rcynoIL-1β [6]: 6.97 nM; IC90, inhibition of G-CSF release, cynomolgus lung fibroblasts (CLF), 15 pM rcynoIL-1β [6]: 24.3 nM; IC90, inhibition of IL-6 release, cynomolgus dermal fibroblasts (CDF), 5 pM rcynoIL-1β [6]: 25.9 nM; IC90, inhibition of IL-6 release, cynomolgus lung fibroblasts (CLF), 15 pM rcynoIL-1β [6]: 43.6 nM; Kd [7]: 0.18 nM; Kd [8]: 1.71 nM; koff [8]: 0.000295 s⁻¹; kon [8]: 172000 M⁻¹ s⁻¹; IC30, inhibition of rhIL-1β-induced cytokine release, NHDF donor 29114 [9]: 0.087 nM; IC30, inhibition of rhIL-1β-induced cytokine release, NHLF donor 34325 [9]: 0.127 nM; IC30, inhibition of rhIL-1β-induced cytokine release, NHLF donor 35234 [9]: 0.09 nM; IC50, inhibition of rhIL-1β-induced cytokine release, NHDF donor 29114 [9]: 0.174 nM; IC50, inhibition of rhIL-1β-induced cytokine release, NHLF donor 34325 [9]: 0.293 nM; IC50, inhibition of rhIL-1β-induced cytokine release, NHLF donor 35234 [9]: 0.207 nM; IC90, inhibition of rhIL-1β-induced cytokine release, NHDF donor 29114 [9]: 1.07 nM; IC90, inhibition of rhIL-1β-induced cytokine release, NHLF donor 34325 [9]: 2.55 nM; IC90, inhibition of rhIL-1β-induced cytokine release, NHLF donor 35234 [9]: 1.8 nM

From patent US20230227545A1 (published 2023)
